Data taken from the DeepSol protein solubility set.

experiment: soluble on expression in E. coli; label from the status in PepcDB or PDB records

Row | Sequence | soluble on expression in E. coli
1 | MSLNGPLKIGYYKIGAAYRDGKGYDVDMVRELARRLGCPIANETELPRLRALKMLETGQIDVSASTLATPDRLQYAWIYQYNHAKNMVLLNPAIQARTLATLLEDPALRWGAIRGYHHGPSQDKLLEELNARHKVVIANDEDDLYKMLGNGVVTAVFAQPFSYGRWLRELPNPNQIVVLDLYPETDMVASGLALSKARFSREAAEKWHQELLKMYQDGSLYDIMRRYLNEGHHHHHH | not soluble
2 | MSLNIQAIDTRHGTANQHSFSNGNCLPYTGVPFGMNFYAPQTTDQKGSWWFHPEDRTFQGYRVTHQPSPWMGDFSHLLMTPVSGSLSELSLFHAQSSYRPEESLFSPVEINLTQLRYQITSQLIPSMYGGILTIDYQQKDNHLLLTLPGRYQVKQLDDHQVAVKVINYSGCEDPDFSFYFVLHFEQPLTKWFAPSSGEDGKILLSFGNIAQQVVHFSSSFISEKQAQLNLAREISLRSTEMLQQGIADWHNYFDRLKVTHENPEHTKTFYHTLYRTFLFPQTFYELDENQQPIHYDTFSQTVRPGVLYTNNGFWDTYKTVYPLFSLIAQEKYEEMLEGFLNSYNETGFLPKWLSPDERGLMPGTLIDAVIADAAVKKIRPDLMPQFLEAMKKGATQQSERENYGRQGTLDYLKYGYVPSTYHESVNHTLDYAYSDFCISQVAKTLNDSETATFYRQQALNYQQLFNPETGFMQAKDTEGNFRPDFLDIRWGKDYAEGSAWQSSFAVYQDFAGLIKLYGSELAFEKKLIQLCNQAPNFNVEGYGFEIHEMSEMAAIDFGQLAISNQPSFHYPFLFSYIGKPEMAQPLLKQLMQTFDASPTGYPGDEDNGSMSAWYIFNSLGFYPVTPGTGEYVIGMPLVQTAEVKLSNGKQLTIQTSPNKVQQQFIHEIQLNQEKHTAPYFTHQELLNGGTLDYQLGIVPNPQNTAERPFSLSTEKEGGSHHHHHH | soluble
3 | MSLNKEPDPPLAESLRPQHIDEVIGQSHLLGEGKPLRLCFMGSKLHSMILWGPPGVGKTTIARLTAQAFDCEWIALSAVFSGVKDIRAAVEKAQEYLIHDKQTILFIDEIHRFNKAQQDALLPYTESGLITFIGATTENPSFEVNSALLSRAQVYVLKPLSEQELKLLFLRAHQRALSSLQFTEEAVDFLISCADGDARRLLNLLEQTKTACLTIKTAVVDVELLHNVIVQNSRRFDKGGEAFYDQISALHKSVRGSNPDAALYWLCRMLDGGVDPYYLARRIIRMSWEDIGLADPKAIQIANDAAATYERLGSPEGELALAQAVIYLSVAAKSNAGYVAFNQAMEFIKRDKSREVPIHLRNAPTQLMKKLGYGHEYRYAHDEPHGYAAGECYLPEGMPEVNWYNPVQRGLETKIAEKLAFLRQLDKDVKKEGHHHHHH | soluble
4 | MSLNKKDVIRTLERIAIYMELKGENPFKISAYRKAALALEQDERTLDEIEDPATLKGIGKGTAEVILDLKETGESSLMHELKESVPAGLIPLLQLPSLGGKKIAKLYQELGVIDLATLKEACEQGNVRELAGFGKKSEEKILAAIAELSNKPERFPIAFVLPIAVEIEAQLKEMDSIHRFSRAGSLRRMRETVKDLDYIISTDDPEAVREQLLQLKHMGKTIASGDTKVSVELEYDYPISVDFRLVKDEAFATTLHHFTGSKEHNVKMRQLAKARGEKISEYGVENTETGDVKTFADESAFFKHFGLTYIPPEAREDQGEVELFKEAHALVTLEDIRADLHMHTTWSDGAHSIEEMAEAARQRGYEYIAITDHSKFLRVANGLSEERLKEQHAKIRELNERYDDFTIFTGIEMDILPDGTLDYEDPILAEVDFVIASIHSSFSQPREKIMDRLKTALVNHHVDLIAHPTGRLIGRREGYDVDVDMLIELAKETNTALELNANPNRLDLNSEALKKAQEQGVVMAINTDSHTKETFSYMEYGVGVARKGLIRPETVINTWPLERFCAFLRRHQPEGHHHHHH | soluble
5 | MSLNKQDKKWRVLVVDDDADVLTNTVYTLMDLKVLGRELDITTLGSATAAIELLERERDFAVILLDVVMEKPHAGLSLVTMIRHDFNMQMSRIILRTGNPGYAPERDITLKLEIDDYILKQTAVRDRIITAVIVAIRAYDQLQRLARLKDAMQQIICCSNQLLTTDEIDQFANVCMQYVAPIFGKNAGGGLAYAGMTVNQGIVPLTVMSATSEHESLIEPLNGEGHHHHHH | not soluble
6 | MSLNLPSFTLDIKLAGDGPAGVEKQIQQMQAMVDDRVDLIIVQPTDNAALSSPLQAANQAGIPVVAYDQYISGGHLSAFVTSNNYQAGFLDGEYMAHHFADDHTIQIILVEYPYVSSTIDRVDGFFDALNQYKQPYRILRSYQAVEPVQGRAVGQQILQDFPQPGSVDALFTINDGGGLAIVDELEKAGRHELFVATIDGDPNSVARIRKGSIIKIDSAQFCGPIGAEAMRAAYAILTAGKVHEHWLVPVFPITRQSVAHYPGWSGPIPEHYSNPCLTFLCREGHHHHHH | not soluble
